Test results: publication PMC3305072

Tests used:
[1] = SEC; Superdex 200 GL 10/300, PBS pH 7.5, protein injected at 50 µM, 0.5 mL/min, A280; percent of monomeric, dimeric and high molecular weight species
[2] = SEC; Superdex 200 GL 10/300, PBS pH 7.5, protein injected at 120 µM, 0.5 mL/min, A280; percent of monomeric, dimeric and high molecular weight species
[3] = SEC; Superdex 200 GL 10/300, PBS pH 7.5, protein injected at 10 µM, 0.5 mL/min, A280; percent of monomeric, dimeric and high molecular weight species
[4] = biological target: BlaP(Gln)79 (Bacillus licheniformis 749/C); test: SEC; Superdex 200 GL 10/300, PBS pH 7.5, protein injected at 120 µM, 0.5 mL/min, A280; percent of monomeric, dimeric and high molecular weight species

Substance	% dimeric species (SEC) [1] [%]	% dimeric species (SEC) [2] [%]	% high molecular weight oligomeric species (SEC) [1] [%]	% high molecular weight oligomeric species (SEC) [2] [%]	% dimeric species (SEC) [3] [%]	% high molecular weight oligomeric species (SEC) [3] [%]	stoichiometry N [4]
BlaP(Gln)23	0.6	0.7					
BlaP(Gln)30	0.4	0.5					
BlaP(Gln)55	1.1	1.4					
BlaP(Gln)79	1.1	1.2	2.5	3.5	0.9	1.8	
BlaP(Gln)79 (enzyme)							> 15
β-lactamase from Bacillus licheniformis 749/C (BlaP)	4.9	5.6					
